Source: paper PMC8131632 (2021)

Molecular target: SARS-CoV-2 spike receptor binding domain (RBD), Avi-tagged and biotinylated (SARS-CoV-2, UniProt P0DTC2 319-541, biotin (Avi tag, by BirA))
Assay: ELISA

| Binder | IC50 |
| --- | --- |
| REGN10933 Ig-TD (antibody, V domains shown) VH: QVQLVESGGGLVKPGGSLRLSCAASGFTFSDYYMSWIRQAPGKGLEWVSYITYSGSTIYYADSVKGRFTISRDNAKSSLYLQMNSLRAEDTAVYYCARDRGTTMVPFDYWGQGTLVTVSS VL: DIQMTQSPSSLSASVGDRVTITCQASQDITNYLNWYQQKPGKAPKLLIYAASNLETGVPSRFSGSGSGTDFTFTISGLQPEDIATYYCQQYDNLPLTFGGGTKVEIK | 0.045 nM |
| REGN10933 IgG1 (antibody, V domains shown) VH: QVQLVESGGGLVKPGGSLRLSCAASGFTFSDYYMSWIRQAPGKGLEWVSYITYSGSTIYYADSVKGRFTISRDNAKSSLYLQMNSLRAEDTAVYYCARDRGTTMVPFDYWGQGTLVTVSS VL: DIQMTQSPSSLSASVGDRVTITCQASQDITNYLNWYQQKPGKAPKLLIYAASNLETGVPSRFSGSGSGTDFTFTISGLQPEDIATYYCQQYDNLPLTFGGGTKVEIK | 1.45 nM |
| REGN10933 Fab-TD (Fab, V domains shown) VH: QVQLVESGGGLVKPGGSLRLSCAASGFTFSDYYMSWIRQAPGKGLEWVSYITYSGSTIYYADSVKGRFTISRDNAKSSLYLQMNSLRAEDTAVYYCARDRGTTMVPFDYWGQGTLVTVSS VL: DIQMTQSPSSLSASVGDRVTITCQASQDITNYLNWYQQKPGKAPKLLIYAASNLETGVPSRFSGSGSGTDFTFTISGLQPEDIATYYCQQYDNLPLTFGGGTKVEIK | 0.012 nM |
| REGN10933 mIg-TD (antibody, V domains shown) VH: QVQLVESGGGLVKPGGSLRLSCAASGFTFSDYYMSWIRQAPGKGLEWVSYITYSGSTIYYADSVKGRFTISRDNAKSSLYLQMNSLRAEDTAVYYCARDRGTTMVPFDYWGQGTLVTVSS VL: DIQMTQSPSSLSASVGDRVTITCQASQDITNYLNWYQQKPGKAPKLLIYAASNLETGVPSRFSGSGSGTDFTFTISGLQPEDIATYYCQQYDNLPLTFGGGTKVEIK | 0.18 nM |
| CB6/Junshi Fab-TD (Fab, V domains shown) VH: EVQLVESGGGLVQPGGSLRLSCAASGFTVSSNYMSWVRQAPGKGLEWVSVIYSGGSTFYADSVKGRFTISRDNSMNTLFLQMNSLRAEDTAVYYCARVLPMYGDYLDYWGQGTLVTVSS VL: not shown | 0.03 nM |
| CB6/Junshi mIg-TD (antibody, V domains shown) VH: EVQLVESGGGLVQPGGSLRLSCAASGFTVSSNYMSWVRQAPGKGLEWVSVIYSGGSTFYADSVKGRFTISRDNSMNTLFLQMNSLRAEDTAVYYCARVLPMYGDYLDYWGQGTLVTVSS VL: not shown | 0.29 nM |
| CB6/Junshi Ig-TD (antibody, V domains shown) VH: EVQLVESGGGLVQPGGSLRLSCAASGFTVSSNYMSWVRQAPGKGLEWVSVIYSGGSTFYADSVKGRFTISRDNSMNTLFLQMNSLRAEDTAVYYCARVLPMYGDYLDYWGQGTLVTVSS VL: not shown | 0.1 nM |
| REGN10987 Fab-TD (Fab, V domains shown) VH: QVQLVESGGGVVQPGRSLRLSCAASGFTFSNYAMYWVRQAPGKGLEWVAVISYDGSNKYYADSVKGRFTISRDNSKNTLYLQMNSLRTEDTAVYYCASGSDYGDYLLVYWGQGTLVTVSS VL: QSALTQPASVSGSPGQSITISCTGTSSDVGGYNYVSWYQQHPGKAPKLMIYDVSKRPSGVSNRFSGSKSGNTASLTISGLQSEDEADYYCNSLTSISTWVFGGGTKLTVL | 0.02 nM |
| REGN10987 mIg-TD (antibody, V domains shown) VH: QVQLVESGGGVVQPGRSLRLSCAASGFTFSNYAMYWVRQAPGKGLEWVAVISYDGSNKYYADSVKGRFTISRDNSKNTLYLQMNSLRTEDTAVYYCASGSDYGDYLLVYWGQGTLVTVSS VL: QSALTQPASVSGSPGQSITISCTGTSSDVGGYNYVSWYQQHPGKAPKLMIYDVSKRPSGVSNRFSGSKSGNTASLTISGLQSEDEADYYCNSLTSISTWVFGGGTKLTVL | 0.4 nM |
| REGN10987 Ig-TD (antibody, V domains shown) VH: QVQLVESGGGVVQPGRSLRLSCAASGFTFSNYAMYWVRQAPGKGLEWVAVISYDGSNKYYADSVKGRFTISRDNSKNTLYLQMNSLRTEDTAVYYCASGSDYGDYLLVYWGQGTLVTVSS VL: QSALTQPASVSGSPGQSITISCTGTSSDVGGYNYVSWYQQHPGKAPKLMIYDVSKRPSGVSNRFSGSKSGNTASLTISGLQSEDEADYYCNSLTSISTWVFGGGTKLTVL | 0.12 nM |
